Reference: US20060242739A1, “Plant nucleotide-sugar pyrophosphatase/phosphodiesterase (nppase), method of obtaining same and use of same in the production of assay devices and in the production of transgenic plants” (Universidad Publica De Navarra, priority 2002, published 2006)

T1: NPPase from barley leaves (Hordeum vulgare, UniProt Q687E1)
T1 sequence (Q687E1 19-368): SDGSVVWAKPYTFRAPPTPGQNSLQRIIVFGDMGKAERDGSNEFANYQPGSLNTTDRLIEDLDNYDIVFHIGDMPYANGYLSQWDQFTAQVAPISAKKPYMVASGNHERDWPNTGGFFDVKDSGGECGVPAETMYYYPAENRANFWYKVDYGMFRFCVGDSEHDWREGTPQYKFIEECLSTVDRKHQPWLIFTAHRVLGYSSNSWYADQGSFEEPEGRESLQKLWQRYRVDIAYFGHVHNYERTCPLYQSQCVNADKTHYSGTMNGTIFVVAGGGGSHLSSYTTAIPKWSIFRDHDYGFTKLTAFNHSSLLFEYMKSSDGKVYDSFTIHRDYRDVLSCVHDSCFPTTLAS


Columns and labels:
[1] = slightly basic pH
[2] = biological target: T1, NPPase from barley leaves; assay: Enzymatic test of soluble NPPase from barley leaves: kinetic parameters, substrate specificity, effectors; settings: qualitative

Row | Molecule | pH sensitivity [1] | resistance of NPPase to ionic detergents and proteases [2]
1 | NPPase: plant nucleotide pyrophosphatase/phosphodiesterase, soluble 70-kDa isoform purified from barley leaves (protein) MVSRKRGGGGGVAMAVAMLLAAASASRPSSSLEGFQPLSKIAVHKATVDLHGSAFVSATPALLGDQGEDTEWVTVKYGWANPSADDWIAVFSPADFISGSCPNPSRYPDEPLLCTAPIKYQFANYSANYVYWGKGSIRFQLINQRYDFSFALFTGGLENPKLVAVSEAISFKNPKAPVYPRLAQGKSYDEMTVTWTSGYDISEAYPFVEWGMVVAGAAAPTRTAAGTLTFNRGSMCGDPDRTVGWRDPGFIHTAFLRDLWPNKEYYYKIGHELSDGSIVWGKQYTFRAPPFPGQNSLQRIIVFGDMGKAERDGSNEFANYQPGSLNTTDRLVEDLDNYDIVFHIGDLPYANGYISQWDQFTAQVAPITAKKPYMIASGNHERDWPNTGGFFDVKDSGGECGVPAETMYYYPAENRANFWYKVDYGMFRFCIADSEHDWREGTDQYKFIEQCLSTVDRKHQPWLIFAAHRVLGYSSNWWYADQQSFEEPEGRESLQRLWQRHRVDVAFFGHVHNYERTCPMYQSQCVSGERRRYSGTMNGTIFVVAGGGGSHLSDYTSAIPKWSVFRDRDFGFVKLTAFNHSSLLFEYKKSSDGKVYDSFTVERDYRDVLSCVHDSCLPTTLAS | sensitive | –
2 | Proteinase K: protease (Boehringer) (protein, UniProt P06873 106-384, looked up) Proteinase K: AAQTNAPWGLARISSTSPGTSTYYYDESAGQGSCVYVIDTGIEASHPEFEGRAQMVKTYYYSSRDGNGHGTHCAGTVGSRTYGVAKKTQLFGVKVLDDNGSGQYSTIIAGMDFVASDKNNRNCPKGVVASLSLGGGYSSSVNSAAARLQSSGVMVAVAAGNNNADARNYSPASEPSVCTVGASDRYDRRSSFSNYGSVLDIFGPGTSILSTWIGGSTRSISGTSMATPHVAGLAAYLMTLGKTTAASACRYIADTANKGDLSNIPFGTVNLLAYNNYQA | – | resistant
